Laboratory results taken from article PMC7984254 (Biochimica et biophysica acta. Molecular cell research, 2020).

Biological target: recombinant FGF14 protein (aa 64–252) (human, UniProt Q92915-2 64-252)
Experiment: SPR

## KFKESVFENAYVIYSSMLYR (peptide, UniProt Q92915-2 149-168, looked up) [FGF14^Y158A mutant peptide]
  koff: 0.158 s⁻¹
  kon: 23200 M⁻¹ s⁻¹
